Article PMC8558862, “Imaging of Dysfunctional Elastogenesis in Atherosclerosis Using an Improved Gadolinium-Based Tetrameric MRI Probe Targeted to Tropoelastin” (Journal of Medicinal Chemistry, 2021)
Ends that are not written are not given here. (Gd-DOTA)4‑MI = maleimide-bearing lysine-based tetramer of four Gd(III)-DOTA-monoamide chelates

Experiments:
[1] = tested on: atherosclerotic plaques in the brachiocephalic artery of ApoE–/– mice; experiment: In vivo LGE MRI at 3 T in atherosclerotic ApoE–/– mice; conditions: 0.2 mmol kg^–1 i.v.
Procedure: The Gd4-TESMA probe was assessed for its ability to enhance the MRI signal within plaques in the brachiocephalic artery of an ApoE^–/– murine model of plaque progression and in control nonatherosclerotic mice. For these studies, atherosclerotic ApoE^–/– mice were scanned after the tandem administration of Gd-ESMA, Gd-TESMA (24 h after the Gd-ESMA administration), and finally Gd4-TESMA (24 h after the Gd-TESMA administration; Supporting Information Figure S1). […] All molecular probes were injected at a dose of 0.2 mmol kg^–1 (corresponding to the same dose of injected gadolinium for Gd-ESMA and Gd-TESMA and to a dose of 0.8 mmolGd kg^–1 for Gd4-TESMA). […]
Following a 3D GRE scout scan, contrast-enhanced angiography images were acquired for visualization of the aortic root, aortic arch, and brachiocephalic and carotid arteries with a FOV = 30 × 30 × 8 mm, matrix = 200 × 200, in-plane resolution = 0.15 × 0.15 mm (reconstructed = 0.10 × 0.10 mm), slice thickness = 0.5 mm, TR/TE = 15/6.1 (ms), and flip angle = 40°. […] Late gadolinium enhanced images were acquired with an inversion-recovery 3D fast gradient echo sequence every 30 min for up to 2 h postinjection of the contrast agent and were used to visualize and quantify contrast uptake.

[2] = Relaxometry: water proton longitudinal relaxivity; type: physicochemical; conditions: 298 K, 3.8 mM HEPES, 150 mM NaCl, pH 7.2
Procedure: The relaxivity per gadolinium of Gd4-TESMA is 8.5 ± 0.2 mM^–1 s^–1 (at 20 MHz, 298 K, 3.8 mM HEPES, 150 mM NaCl, pH 7.2; Table 1), while that of Gd-TESMA under the same conditions cannot be defined uniquely as it changes with the concentration of the complex.
The water proton longitudinal relaxation rates as a function of the magnetic field strength were measured in aqueous solutions using a Fast Field-Cycling Stelar SmarTracer relaxometer (Stelar s.r.l., Mede (PV), […] MHz proton Larmor frequencies). The relaxometer operates under computer control with an absolute uncertainty in 1/T1 of 1%. […] The ^1H T1 relaxation times were acquired by the standard inversion recovery method with a typical 90° pulse width of 3.5 μs, 16 experiments, and 4 scans. The temperature was controlled using a Stelar VTC-91 airflow heater equipped with a calibrated copper–constantan thermocouple (uncertainty of ±0.1 °C).
MRI data are presented as median ± interquartile range (IQR). […] P values <0.05 were considered statistically significant.

[3] = 1H NMRD profile fitting (SBM and Freed theory); type: physicochemical; conditions: HEPES buffer pH 7.2; Gd-TESMA NMRD at 2.3 mM
Procedure: Figure 4 ^1H NMRD profiles showing the millimolar relaxivity per gadolinium r1p of Gd-TESMA (2.3 mM, solid symbols) and Gd4-TESMA (1.3 mM, open symbols) in the HEPES buffer (pH 7.2) at 298 K (circles) and 310 K (squares). The solid line represents the best fitting of the experimental points at 310 K to the SBM and Freed theory of paramagnetic relaxation. The following parameters were kept fixed: water diffusion coefficient (D) = 3.1 10^–5 cm^2 s^–1; distance between Gd(III) and the inner sphere water protons (r) = 3.1 Å; number of inner sphere water molecules (q) = 1; and distance of the closest approach of outer-sphere water protons = 3.8 Å. Curve fitting converged to the following: correlation time for molecular reorientation (τR) = 170 ps; residence lifetime of the inner sphere water molecule (τM) = 460 ns; correlation time for electronic relaxation (τv) = 47 ps; and zero-field splitting energy (Δ^2) = 1.3 10^19 s^–2. […]
The water proton longitudinal relaxation rates as a function of the magnetic field strength were measured in aqueous solutions using a Fast Field-Cycling Stelar SmarTracer relaxometer (Stelar s.r.l., Mede (PV), Italy) over a continuum of magnetic field strengths from 0.00024 to 0.25 T (corresponding to 0.01–10 MHz proton Larmor frequencies). […]

[4] = target: T1, immobilized human recombinant tropoelastin (Homo sapiens, UniProt P15502); experiment: Surface plasmon resonance binding affinity (kinetic mode, 1:1 Langmuir model); conditions: SPR Biacore 2000, CM5 chip, 25 °C, HEPES running buffer pH 7.4; mean ± SD of triplicate measurements
T1 construct: purchased Advanced BioMatrix 5052-1MG
T1 sequence (P15502 27-786): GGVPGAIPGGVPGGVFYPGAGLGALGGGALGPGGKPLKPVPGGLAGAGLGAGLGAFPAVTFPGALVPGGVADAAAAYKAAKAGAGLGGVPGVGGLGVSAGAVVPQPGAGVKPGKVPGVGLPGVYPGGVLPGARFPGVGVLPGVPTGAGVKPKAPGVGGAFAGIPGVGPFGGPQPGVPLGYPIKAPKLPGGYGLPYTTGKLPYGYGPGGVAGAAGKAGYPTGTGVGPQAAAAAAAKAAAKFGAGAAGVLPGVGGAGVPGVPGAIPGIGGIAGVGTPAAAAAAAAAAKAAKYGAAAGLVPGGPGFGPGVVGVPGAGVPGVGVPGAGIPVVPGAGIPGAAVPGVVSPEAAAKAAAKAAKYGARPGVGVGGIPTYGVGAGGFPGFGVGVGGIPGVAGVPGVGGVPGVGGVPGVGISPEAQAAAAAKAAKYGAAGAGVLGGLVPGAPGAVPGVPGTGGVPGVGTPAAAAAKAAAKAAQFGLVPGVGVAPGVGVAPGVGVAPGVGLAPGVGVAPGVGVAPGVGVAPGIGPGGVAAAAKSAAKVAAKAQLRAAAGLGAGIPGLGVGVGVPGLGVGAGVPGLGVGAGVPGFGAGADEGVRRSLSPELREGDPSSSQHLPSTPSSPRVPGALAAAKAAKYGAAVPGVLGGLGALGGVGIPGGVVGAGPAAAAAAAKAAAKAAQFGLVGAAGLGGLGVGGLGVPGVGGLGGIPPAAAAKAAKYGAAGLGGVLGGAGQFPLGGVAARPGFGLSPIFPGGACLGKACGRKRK
Procedure: The binding affinity of Gd-TESMA and Gd4-TESMA to tropoelastin was assessed by surface plasmon resonance (SPR) under the kinetic affinity mode.
The binding affinity between tropoelastin (human recombinant tropoelastin, Advanced BioMatrix, Cat. No. 5052-1MG, Batch No. 7932) and Gd4-TESMA or Gd-TESMA was assessed by surface plasmon resonance (SPR) on a Biacore 2000 instrument (Cytiva). The instrument was equipped with a CM5 sensor chip carrying carboxymethylated dextran (Cytiva). First, the ligand was immobilized on the sensor chip surface by amine coupling: the flow cell was activated for 7 min by a 1-ethyl-3-(3-dimethylaminopropyl)carbodiimide hydrochloride (EDC)/N-hydroxysuccinimide (NHS) mixture. Then, tropoelastin was injected at 200 μM in a 10 mM sodium acetate buffer (pH 4) with a flow rate of 5 μL min^–1 to reach an immobilization level corresponding to 3500–5000 resonance units (R.U.). The remaining active sites were blocked by 1 M of ethanolamine-HCl (pH 8.5) for 7 min. As a control for nonspecific interaction, another flow cell on the CM5 sensor chip was treated in the same manner but without adding tropoelastin. […] The equilibrium dissociation constant (KD) and the kinetic association and dissociation rate constants (ka and kd) were determined by curve-fitting using the 1:1 Langmuir binding model implemented in the Biaevaluation software 4.1.1.[48] […]

[5] = Serum stability by RP-HPLC; conditions: male, human, 50% (v/v) aqueous pooled human serum
Procedure: The stabilities of Gd4-TESMA and the parent VVGS-peptide in human serum were evaluated by HPLC (Figure 6). Compounds were incubated up to 120 min, and aliquots were taken at different times: 0, 35, and 120 min.
The serum stabilities of Gd4-TESMA and its parent peptide (VVGS-peptide) were determined in 50% (v/v) aqueous pooled serum from human male AB plasma, which was purchased from Sigma-Aldrich (Milan, Italy). Samples were dissolved in water (6.6 mM), diluted in serum (previously centrifuged at 8000 rpm for 15 min at 4 °C) at a final concentration of 0.6 mM (220 μL), and subsequently incubated at 37 °C. Aliquots (6 μL) taken after 0, 35, and 120 min were diluted in water at a final concentration of 0.06 mM. The samples were analyzed by RP-HPLC using an Atlantis dC18 column, 5 μm, 4.6 × 150 mm, as described in ref ([47]). The amount of intact compound was estimated by integrating the area under the corresponding elution peak monitored at 210 nm. Five replicate experiments for each compound were carried out. The […] (HPLW peptide),[47] unrelated to TESMA, was used as a positive control.

[6] = target: T2, human recombinant tropoelastin (human, UniProt P15502 27-786); experiment: SPR; Biacore 2000; tropoelastin immobilised on a CM5 chip by amine coupling (3500-5000 R.U.); analyte injected at 20 uL/min for 3 min at 25 °C in HEPES running buffer (pH 7.4, HBS-P) or 10 mM HEPES; control flow cell subtracted; 1:1 Langmuir fit; triplicate; conditions: both partners purified
T2 construct: tropoelastin (soluble elastin precursor), human, recombinant; also called TE; source: bought: Advanced BioMatrix (Cat. No. 5052-1MG, Batch No. 7932)
T2 sequence (looked up): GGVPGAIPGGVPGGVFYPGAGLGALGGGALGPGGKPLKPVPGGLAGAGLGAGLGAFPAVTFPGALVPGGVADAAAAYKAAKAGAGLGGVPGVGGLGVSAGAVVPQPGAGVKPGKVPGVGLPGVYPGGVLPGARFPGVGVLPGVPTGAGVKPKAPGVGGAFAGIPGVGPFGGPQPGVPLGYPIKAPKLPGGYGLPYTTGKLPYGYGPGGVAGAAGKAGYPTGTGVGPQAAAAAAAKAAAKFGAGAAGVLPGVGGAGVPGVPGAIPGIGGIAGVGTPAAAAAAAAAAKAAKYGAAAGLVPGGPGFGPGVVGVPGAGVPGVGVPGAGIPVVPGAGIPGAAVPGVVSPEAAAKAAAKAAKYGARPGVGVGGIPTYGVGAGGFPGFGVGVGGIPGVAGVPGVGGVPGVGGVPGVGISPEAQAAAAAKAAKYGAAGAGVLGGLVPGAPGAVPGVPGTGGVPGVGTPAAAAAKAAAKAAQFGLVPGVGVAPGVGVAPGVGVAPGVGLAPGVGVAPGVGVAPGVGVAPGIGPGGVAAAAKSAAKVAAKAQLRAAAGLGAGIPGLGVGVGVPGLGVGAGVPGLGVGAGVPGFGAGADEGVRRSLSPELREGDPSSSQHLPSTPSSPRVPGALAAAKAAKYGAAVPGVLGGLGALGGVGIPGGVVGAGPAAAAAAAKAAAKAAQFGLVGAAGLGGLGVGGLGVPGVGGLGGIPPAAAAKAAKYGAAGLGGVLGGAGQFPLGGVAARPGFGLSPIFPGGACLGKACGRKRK

In the case of C-GAESAPLVSSVQSPD [Gd4-scTESMA], the “accumulation within plaques” value ([1]; ApoE–/– mice, LGE MRI, in comparison to Gd4-TESMA) is reported as “low/negligible accumulation within plaques”.

In the case of “Gd-TESMA: single Gd-DOTA monoamide unit conjugated with a 15-residue peptide sequence (VVGS-peptide); monomeric counterpart, purchased (VVGSPSAQDEASPLS; also: single Gd-DOTA monoamide unit conjugated, site not given here) [reference compound]”, the “relaxivity per gadolinium at 18 μM probe” value ([2]; 18 μM probe, 20 MHz) is reported as 6.1 mM^–1 s^–1, the “relaxivity r1 at 20 MHz, probe at 1 mM” value ([2]; 1 mM probe, 20 MHz, mean ± SD) is reported as 10.0 ± 0.3 mM^–1 s^–1 and the “relaxivity r1 at 125 MHz, probe at 1 mM” value ([2]; 1 mM probe, 125 MHz, mean ± SD) is reported as 10.4 ± 0.3 mM^–1 s^–1. For the same molecule, the “relaxivity per gadolinium at 2.3 mM probe” value ([2]; 2.3 mM probe, 20 MHz) was 12.4 mM^–1 s^–1, the “aggregation (inferred from concentration dependence of relaxivity and NMRD profile)” value [3] was “self-assembled into aggregates with high polydispersity at relatively high concentrations” and the “dissociation rate constant kd” value [4] was 2.3 × 10^–2 ± 0.5 × 10^–2 s^–1. For the same molecule, the “vessel wall-to-blood CNR at 0.5 h postinjection” value ([1]; ApoE–/– mice on HFD 16 weeks, 3 T LGE MRI, 0.5 h, median (IQR)) was 6.75.

Work on VVGSPSAQDEASPLS [VVGS-peptide] yielded a half-life at 0.6 mM [5] of about 45 min and a remaining at 2 h, 0.6 mM [5] of about 20%.

B1: Gd4-TESMA (peptide)
peptide: C((Gd-DOTA)4‑MI)VVGSPSAQDEASPLS
modifications: also: Gd(III) chelates, thiol/maleimide conjugation
notes: also called tetrameric Gd4-TESMA probe; source: synthetic peptide (Fmoc SPPS), reacted with [Gd-DOTA]4-MI, purified by semipreparative HPLC
Molecule B1 has a Kd [6] of 41 µM.

B2: Gd-TESMA (peptide)
peptide: VVGSPSAQDEASPLS
modifications: also: single Gd-DOTA monoamide unit conjugated, site not given here
notes: also called monomeric Gd-TESMA probe; source: bought: For Peptide Protein Research Limited (Fareham, UK)
B2 gave a Kd [6] of 28 µM, a koff [6] of 0.023 s⁻¹ and a kon [6] of 880 M⁻¹ s⁻¹.
